B1: mRNA-splicing (parent)
chain: AGUUGCUGCUGGGAGCUCCAGCACAGUGAAAUGGACAGAAGGGCAGAGCAA

Variants of: B1
Test: exon inclusion enrichment index; higher = more inclusion; WT1 exon 5 minigene, HEK293

Row | Variant | exon inclusion enrichment index
1 | G5A C6G U7G C9A C18A C19G | 0.00131
2 | G42A G43U | 1.63
3 | G5A C6U U7A G8U C9A G42U G43C | 0.0628
4 | G5A C6G U7G C9U U10G | 0.493
5 | C6A U7C C9A U10C G28A | 1.59
6 | G5C C6U G8C C9U U10C A39U | 0.0783
7 | G5C C6A U7C G8A U10A G38C A39G | 0.111
8 | C24G A25C | 0.0375
9 | C6A U7C C9A U10C G12U G13C | 0.584
10 | C6A U7C C9A U10C G12U G13A | 1.25
11 | G5A C6U U7A G8U C9A U27C G28C | 0.1
12 | C6A U7A C9A U10A A23G C24A | 1.85
13 | G5A U7C G8A U10C G13A A14U | 2.87
14 | C6A U7C C9A U10C C22G A23G | 2.55
15 | G5A C6G U7G C9A G46C A47G | 0.00214
16 | G5A U7C G8A U10C A47G G48A | 1.37
17 | G5C C6A U7C G8A U10A C16G U17A | 0.181
18 | C6A U7C C9A U10C A30U | 2.51
19 | G5U G8U C9U A30U | 0.0559
20 | G5C U7C U10C | 0.696
21 | A29U A30C | 0.119
22 | G5U G8U C9U A14U | 0.0126
23 | C9G U10G | 0.0139
24 | G5A U7C G8A U10C G13C A14G | 1.71

Row | Variant | exon inclusion enrichment index
25 | G5C C6A U7C G8A U10A C22A A23U | 0.0806
26 | G5C C6G U7C U10C A14C G15C | 1.16
27 | G5C C6U G8C C9U U10C C19G | 1.61
28 | G5U G8U C9U G42U G43A | 0.451
29 | C6G G8C C9U U10C | 0.97
30 | G38C | 0.09
31 | G5C C6G U7C U10C G12U | 1.53
32 | G5C C6U G8C C9U U10C C18U C19G | 0.675
33 | C6A U7C C9A U10C G26A | 3.92
34 | G5A C6G U7G C9A A29G A30C | 0.000858
35 | G5A U7C G8A U10C G41C | 3.34
36 | C6A U7A C9A U10A G26A | 1.08
37 | C6A U7C C9A U10C G21A | 3.08
38 | C6A U7C C9A U10C C16G U17A | 3.24
39 | C6A U7A C9A U10A A31G | 1.04
40 | G5A C6U U7A G8U C9A A20U | 0.0779
41 | G5A C6G U7G C9A G28U A29G | 0.00238
42 | G5A C6G U7G C9A G21U C22G | 0.000869
43 | G5C C6U G8C C9A U10G | 0.812
44 | G5C C6U G8C C9U U10C A45U | 2.45
45 | G5U G8U C9U G21U C22A | 0.0438
46 | G26A U27A | 0.101
47 | G5C C6U G8C C9U U10C A37G G38A | 1.79
48 | G5C C6A U7C G8A U10A G12C G13C | 0.0502

Row | Variant | exon inclusion enrichment index
49 | C6A U7A C9A U10A G26U U27G | 1.76
50 | C6A U7C C9A U10C C16U | 3.55
51 | G5A C6G U7G C9A G12C | 0.00529
52 | U3G G5C C6U G8C C9U U10C | 0.696
53 | C6A U7C C9A U10C U32A G33U | 3.1
54 | C6A U7A G8A C9G U10A | 0.2
55 | C6A U7A C9A U10A G38U A39C | 0.692
56 | G5C C6U G8C C9U U10C A35G C36U | 0.016
57 | G5A U7C G8A U10C A40C | 2.82
58 | G5U G8U C9U G28C A29G | 0.342
59 | G5C C6U U7A U10C | 0.444
60 | G5C C6G U7C U10C G43C C44A | 3.83
61 | C6A U7C C9A U10C A40C | 3.36
62 | G5C C6A U7C G8A U10A G26U U27C | 0.613
63 | A40G | 0.0976
64 | G5A C6U U7A G8U C9A A35U C36A | 0.000817
65 | G5A U7C G8A U10C A29G A30C | 1.32
66 | G5C C6U G8C C9U U10C A30C A31U | 2.1
67 | G5C C6U G8C C9U U10C G41U G42C | 2.93
68 | G5C C6U G8C C9U U10C G41U G42A | 0.727
69 | G5C C6A U7C G8A U10A A45U G46A | 0.0675
70 | G5A C6G U7G C9A G46A A47U | 0.00359
71 | G5A U7C G8A U10C A25G | 3.43
72 | G5A U7C G8A U10C A20G G21C | 2.62

Row | Variant | exon inclusion enrichment index
73 | G5C C6G U7C U10C G33U G34U | 0.875
74 | C6G U7G C9A U10C | 0.246
75 | U4A G5U C6A U7C G8A U10A | 0.0592
76 | U3C U4G G5U G8U C9U | 0.61
77 | G5A U7C G8A U10C A39C | 0.541
78 | A37U G38U | 0.0123
79 | G5C C6A U7C G8A U10A G42A G43A | 1.43
80 | C6A U7C C9A U10C A25U G26A | 3.54
81 | G42A | 0.734
82 | G5A C6G U7G C9A A29G | 0.00111
83 | G5A C6G U7G C9A A29U | 0.000861
84 | G5C C6A U7C G8A U10A C18G C19U | 0.00896
85 | G5C C6A U7C G8A U10A G26C U27A | 0.076
86 | G5C C6A U7C G8A G11U | 0.768
87 | U3A U4A C6A U7C C9A U10C | 1.08
88 | C6A U7C C9A U10C A37C | 3.93
89 | A29C | 0.0903
90 | G5C C6A U7C G8A U10A G21C C22G | 0.322
91 | G5A U7C G8A U10C U27G G28C | 1.17
92 | G5A C6U U7A G8U C9A C24A | 0.0667
93 | G5A U7C G8A U10C G26C U27C | 3.74
94 | G5A C6G U7G C9A A45U G46C | 0.00134
95 | G5A C6G U7G C9A A45U G46A | 0.00219
96 | A30C A31G | 0.41

Row | Variant | exon inclusion enrichment index
97 | G5C C6G U7C U10A | 1.02
98 | G5U G8U C9U U10C G11C | 0.932
99 | U4C G5A C6G U7C U10C | 3.53
100 | G2U U3G G5A U7C G8A U10C | 4.12
101 | G5A C6U U7A G8U C9A C19A A20U | 0.0348
102 | C16A U17G | 0.0435
103 | G5C C6A U7C G8A U10A C16U U17G | 0.0279
104 | C6A U7A C9A G11U | 2.86
105 | G5C C6A U7C G8A U10A C22G | 0.197
106 | G5C C6U G8C C9U U10C C36G A37G | 0.3
107 | G5C C6U G8C C9U U10C C36G A37U | 0.948
108 | G5C C6G U7C U10C U17G C18U | 3.11
109 | G5U G8U C9U G41U | 0.17
110 | G5U G8U C9U U10G | 0.095
111 | G5A C6G U7G C9A G21C C22A | 0.00656
112 | G5A C6G U7G C9A G21C C22G | 0.00387
113 | G5A C6U U7A G8U C9A G21U | 0.0639
114 | G5A C6U U7A G8U C9A G41U | 0.077
115 | G5A C6U G8C C9U U10C | 0.807
116 | G5C C6G U7C U10C G15C C16A | 3.23
117 | G5A C6G U7G C9A C36U | 0.00174
118 | G5A C6U U7A G8U C9A G43A C44A | 0.441
119 | G5A C6G U7G C9A G26C U27C | 0.0114
120 | G5U G8U C9U A31C | 0.202

Row | Variant | exon inclusion enrichment index
121 | G5A C6U U7A G8U C9A G11C G12C | 0.0512
122 | G5A U7C G8A U10C C16U U17G | 0.815
123 | G5A U7C G8A U10C G26A | 3.08
124 | U4G G8U C9U | 0.193
125 | C6A U7A C9A U10A G42C G43U | 1.96
126 | G5A U7C G8A U10C G26U U27A | 1.08
127 | G5A C6G U7G C9A C22U A23U | 0.00262
128 | G5A C6U U7A G8U C9A C16A U17C | 0.0702
129 | C36G A37C | 0.127
130 | C6A U7C C9A U10C A23C | 3.27
131 | G5U G8U C9U A40C G41C | 0.711
132 | C6A U7C C9A U10C U27G G28A | 3.19
133 | A37G G38A | 0.201
134 | A37G G38U | 0.0457
135 | A37G G38C | 0.249
136 | C6A U7A C9A U10A A39U A40C | 1.19
137 | G5A G8C C9U U10C | 1.05
138 | G15A | 0.048
139 | C6A U7A C9A U10A A40U G41A | 0.0256
140 | G5C C6U G8C C9U U10C A37C G38A | 1.63
141 | C6A U7A C9A U10A U17A C18A | 0.427
142 | G5A C6U U7A G8U C9A A37G G38A | 0.0869
143 | G5C C6A U7C G8A U10A A23G C24U | 0.0154
144 | U3A U4G G5C C6A U7C G8A U10A | 0.0901

Row | Variant | exon inclusion enrichment index
145 | G5C C6U G8C C9U U10C G34C A35U | 0.385
146 | G5C C6G U7C U10C G11C G12A | 1.1
147 | G5A C6U U7A G8U C9A C18G | 0.0618
148 | C6A U7A C9A U10A C22U A23U | 0.226
149 | A23G | 0.414
150 | G38A A39G | 0.186
151 | A47C G48C | 0.171
152 | G5A C6U U7A G8U C9A U27A G28C | 0.126
153 | C6A U7A C9A U10A A40G G41C | 2.13
154 | A20U G21U | 1.91
155 | G5A U7C G8A U10C A30C A31U | 2.21
156 | C6A U7C C9A U10C G42C G43C | 3.4
157 | G5A U7C G8A U10C G21C | 2.25
158 | G5C C6A U7C G8A U10A A37C G38U | 0.0457
159 | G5U G8U C9U C18G | 0.139
160 | G5U C6G U7A G8U C9A | 0.241
161 | G43U C44U | 0.0355
162 | G5A C6U U7A G8U C9A G26A U27G | 0.168
163 | G5C C6G U7C U10C G33U | 1.79
164 | C6A U7C C9A U10C A29C A30U | 2.76
165 | C6A U7A C9A U10A A25G G26A | 2.29
166 | C6A U7C C9A U10C A31C U32A | 2.78
167 | G5C C6U G8C C9U U10C G34A | 1.17
